Residue numbers refer to the chain shown, from its start. In names and notes the source's numbering stands.
T1: wild-type RuvB protein (E. coli) (UniProt P0A812)
T1 sequence: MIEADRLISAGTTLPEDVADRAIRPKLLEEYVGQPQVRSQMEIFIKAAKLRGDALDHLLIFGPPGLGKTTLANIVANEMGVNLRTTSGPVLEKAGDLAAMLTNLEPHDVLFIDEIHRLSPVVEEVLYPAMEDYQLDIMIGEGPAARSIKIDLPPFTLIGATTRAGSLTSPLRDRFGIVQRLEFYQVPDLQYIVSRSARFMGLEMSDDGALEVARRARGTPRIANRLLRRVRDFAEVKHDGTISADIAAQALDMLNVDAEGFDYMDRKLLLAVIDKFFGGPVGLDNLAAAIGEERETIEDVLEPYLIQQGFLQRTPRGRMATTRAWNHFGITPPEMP

T2: RuvA wild type (Escherichia coli, UniProt P0A809 1-203)
T2 sequence: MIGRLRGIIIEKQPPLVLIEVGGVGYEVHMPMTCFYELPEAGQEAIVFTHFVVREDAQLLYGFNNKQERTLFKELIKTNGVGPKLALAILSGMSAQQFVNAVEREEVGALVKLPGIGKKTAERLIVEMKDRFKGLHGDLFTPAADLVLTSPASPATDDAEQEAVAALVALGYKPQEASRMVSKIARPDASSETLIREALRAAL

B1: wild-type RuvA (natural protein)
chain: T2 sequence
B2: RuvAz3 (natural protein, E. coli, UniProt P0A809 1-203, looked up)
chain: T2 sequence with H29R, K129E, F140S
notes: RuvA of E. coli with the three mutations H29R K129E F140S; Purification steps and expression construct of the mutant proteins are in the supplementary material (Text S1); also called ruvAz3 (H29R K129E F140S); pGB-ruvAz3; source: over-expressed in E. coli and purified
B3: RuvAz87 (natural protein, E. coli, UniProt P0A809 1-203, looked up)
chain: T2 sequence with N79D, N100D
notes: RuvA of E. coli with the two mutations N79D N100D; Purification steps and expression construct of the mutant proteins are in the supplementary material (Text S1); also called ruvAz87 (N79D N100D); ruvA87; source: over-expressed in E. coli and purified
B4: X12 (synthetic Holliday junction) (structured_DNA)
DNA 1: GACGCTGCCGAATTCTACCAGTGCCTTGCTAGGACATCTTTGCCCACCTGCAGGTTCACCC
DNA 2: TGGGTGAACCTGCAGGTGGGCAAAGATGTCCTAGCAATGTAATCGTCAAGCTTTATGCCGTT
DNA 3: CAACGGCATAAAGCTTGACGATTACATTGCTAGGACATGCTGTCTAGAGGATCCGACTATCGA
DNA 4: ATCGATAGTCGGATCCTCTAGACAGCATGTCCTAGCAAGGCACTGGTAGAATTCGGCAGCGT

Tests used:
[1] = target: T1, wild-type RuvB protein (E. coli)
[2] = target: the molecule itself; experiment: SDS-PAGE without boiling the protein samples; purified RuvA mutant proteins run on SDS-PAGE without boiling; tetramer band under denaturing gel conditions; data not shown
RuvA wild type = target: T2, RuvA wild type; experiment: EMSA; EDTA; complexes I and II; EMSA with ~4-5 ng labelled DNA; 5 mM EDTA (gel 0.5x TBE) or 3 mM MgCl2 without EDTA (gel 0.5x TB + 200 uM MgCl2); buffer as in cited ref 18; salt, pH and temperature not stated; settings: protein: recombinant; chain copies: 4; label: 5' IRD700 on S24 (IT.01); four-way junction of 4 strands

Row | Binder | stoichiometry N [2] | further results
1 | B1 | – | RuvA concentration required for RuvB (250 nM) to unwind 50% of a labelled 52-mer annealed to phiX174 ssDNA (DNA helicase assay) [1]: 100 nM
2 | B2 | 4 | –
3 | B3 | 4 | –
4 | B4 | – | binding result (RuvA wild type): binds
